Key:
[1] = biological target: myc-tagged β^+/his6-tagged β^C heterodimer (E. coli) (UniProt P0A988); experiment: SPR
[2] = biological target: β^+–δ1 complex (his6-tagged β^+ homodimer with one tightly bound δ) (E. coli) (UniProt P0A988); experiment: SPR

Substance	Kd [1] [µM]	koff [1] [s⁻¹]	kon [1] [M⁻¹ s⁻¹]	stoichiometry N [1]	Kd [2] [µM]	off rate relative to that from β^+ [1] [fold]
α catalytic subunit of Pol III (from UniProt P10443 1-1160) (enzyme)	0.172	0.0125	72700	–	–	–
δ subunit of the DnaX clamp loader complex (from UniProt P28630 1-343) (natural protein)	0.0156	–	–	1	0.16	–
DnaX clamp loader complex, γ3δδ′χψ form (from UniProt P06710-2;P28630;P28631;P28905;P28632)	–	–	–	–	–	2

— PMC2685083
